In data set [1] the target is UBE2S^UBC (UBC domain of UBE2S, residues 1-156) (human) (UniProt Q16763). The experiment in a line: cross-linking + SEC-MALS. For orientation: SEC sorts molecules by how far they enter the pores of the column.
A further data set concerns the target Cys118 (UniProt position 118, LLTIKCLLIHP). Kind of data set: chemical modification. The following applies: 10 °C; 100 mM NaCl; Free reduced enzyme, 14.4 μM, no ubiquitin or other ligand.
A further data set concerns the target Cys95 (UniProt position 95, ANGEICVNVLK). The experiment in a line: chemical modification. Particulars: 10 °C; 100 mM NaCl; Free reduced enzyme, 14.4 μM, no ubiquitin or other ligand.
The target in data set [2] is T1, UBE2S (full-length, untagged, purified) (human), Q16763.
T1 chain: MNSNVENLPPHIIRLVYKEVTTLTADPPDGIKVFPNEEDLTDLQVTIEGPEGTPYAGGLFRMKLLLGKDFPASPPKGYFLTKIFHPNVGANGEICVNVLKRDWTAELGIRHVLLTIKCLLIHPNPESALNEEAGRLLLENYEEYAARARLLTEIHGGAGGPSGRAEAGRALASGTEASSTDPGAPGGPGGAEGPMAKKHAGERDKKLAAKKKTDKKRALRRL
The experiment in a line: cross-linking + SEC-MALS. The following applies: remark: other sources report otherwise.

The data set “cross-linking” concerns the molecule itself. The experiment in a line: cross-linking.

Where a chain is given by its changes, count along the chain named. Numbers in names are those of the source.

In the case of “UBE2S^UBC (UBC domain of UBE2S, residues 1-156) (from UniProt Q16763 1-156) (domain or fragment)”, in data set [1], the stoichiometry N was 2.
For “Ubiquitin-conjugating enzyme E2 S (UBE2S) C95S variant (Homo sapiens; C95S)”, the pKa with Cys118 is 9.4 ± 0.1.
In the data set with Cys95, “Ubiquitin-conjugating enzyme E2 S (UBE2S) C118S variant (Homo sapiens; C118S)” displayed a pKa of 6.4 ± 0.2.

B1: UBE2S (full-length, untagged, purified), Q16763 1-222 (enzyme)
chain: T1 chain
With B1, the stoichiometry N in data set [2] came out at 2.

B2: UBE2S C95S (full-length) (enzyme)
chain: T1 chain with C95S
With B2, in the data set “cross-linking”, the binding result is “binds”.

For orientation: stoichiometry N means the number of molecules, sites or subunits per partner or assembly. As usually defined, the pKa is the negative logarithm of the acid dissociation constant. A high value points to a weaker acid or stronger base.

Source of the values: PMC7613103 (Science signaling, 2020).
